{"source": "patent US20230158141A1", "about": "(YAFEI SHANGHAI BIOLOG MEDICINE SCIENCE AND TECHNOLOGY, published 2023)", "binders": {"B1": {"name": "anti-PD-1 antibody 2 HC Gly8Cys (antibody, human IgG4 S228P, kappa, V domains shown)", "VH": "QVQLVESCGGVVQPGRSLRLDCKASGITFSNSGMHWVRQAPGKGLEWVAVIWYDGSKRYYADSVKGRFTISRDNSKNTLFLQMNSLRAEDTAVYYCATNDDYWGQGTLVTVSS", "VL": "EIVLTQSPATLSLSPGERATLSCRASQSVSSYLAWYQQKPGQAPRLLIYDASNRATGIPARFSGSGSGTDFTLTISSLEPEDFAVYYCQQSSNWPRTFGQGTKVEIKR", "modifications": "arm on Cys8 as named in each row"}, "B2": {"name": "anti-PD-1 antibody 2 HC Thr98Cys (antibody, human IgG4 S228P, kappa, V domains shown)", "VH": "B1 VH with C8G, T98C", "VL": "B1 VL", "modifications": "arm on Cys98 as named in each row"}, "B3": {"name": "anti-PD-1 antibody 2 HC Ala88Cys (antibody, human IgG4 S228P, kappa, V domains shown)", "VH": "B1 VH with C8G, A88C", "VL": "B1 VL", "modifications": "arm on Cys88 as named in each row"}, "B4": {"name": "anti-PD-1 antibody 2 HC Ser17Cys (antibody, human IgG4 S228P, kappa, V domains shown)", "VH": "B1 VH with C8G, S17C", "VL": "B1 VL", "modifications": "arm on Cys17 as named in each row"}, "B5": {"name": "anti-PD-1 antibody 2 HC Ser85Cys (antibody, human IgG4 S228P, kappa, V domains shown)", "VH": "B1 VH with C8G, S85C", "VL": "B1 VL", "modifications": "arm on Cys85 as named in each row"}, "B6": {"name": "anti-PD-1 antibody 2 HC Gly15Cys (antibody, human IgG4 S228P, kappa, V domains shown)", "VH": "B1 VH with C8G, G15C", "VL": "B1 VL", "modifications": "arm on Cys15 as named in each row"}, "B7": {"name": "anti-PD-1 antibody 2 HC Ser25Cys (antibody, human IgG4 S228P, kappa, V domains shown)", "VH": "B1 VH with C8G, S25C", "VL": "B1 VL", "modifications": "arm on Cys25 as named in each row"}, "B8": {"name": "anti-PD-1 antibody 2 HC Thr28Cys (antibody, human IgG4 S228P, kappa, V domains shown)", "VH": "B1 VH with C8G, T28C", "VL": "B1 VL", "modifications": "arm on Cys28 as named in each row"}, "B9": {"name": "anti-PD-1 antibody 2 HC Ser30Cys (antibody, human IgG4 S228P, kappa, V domains shown)", "VH": "B1 VH with C8G, S30C", "VL": "B1 VL", "modifications": "arm on Cys30 as named in each row"}, "B10": {"name": "anti-PD-1 antibody 2 HC Gly9Cys (antibody, human IgG4 S228P, kappa, V domains shown)", "VH": "B1 VH with C8G, G9C", "VL": "B1 VL", "modifications": "arm on Cys9 as named in each row"}, "B11": {"name": "anti-PD-1 antibody 2 HC Ala24Cys (antibody, human IgG4 S228P, kappa, V domains shown)", "VH": "B1 VH with C8G, A24C", "VL": "B1 VL", "modifications": "arm on Cys24 as named in each row"}, "B12": {"name": "anti-PD-1 antibody 2 HC Gly26Cys (antibody, human IgG4 S228P, kappa, V domains shown)", "VH": "B1 VH with C8G, G26C", "VL": "B1 VL", "modifications": "arm on Cys26 as named in each row"}, "B13": {"name": "anti-PD-1 antibody 2 HC Ser71Cys (antibody, human IgG4 S228P, kappa, V domains shown)", "VH": "B1 VH with C8G, S71C", "VL": "B1 VL", "modifications": "arm on Cys71 as named in each row"}, "B14": {"name": "anti-PD-1 antibody 2 HC Ala92Cys (antibody, human IgG4 S228P, kappa, V domains shown)", "VH": "B1 VH with C8G, A92C", "VL": "B1 VL", "modifications": "arm on Cys92 as named in each row"}, "B15": {"name": "anti-PD-1 antibody 2 HC Gly44Cys (antibody, human IgG4 S228P, kappa, V domains shown)", "VH": "B1 VH with C8G, G44C", "VL": "B1 VL", "modifications": "arm on Cys44 as named in each row"}, "B16": {"name": "anti-PD-1 antibody 2 HC Thr91Cys (antibody, human IgG4 S228P, kappa, V domains shown)", "VH": "B1 VH with C8G, T91C", "VL": "B1 VL", "modifications": "arm on Cys91 as named in each row"}, "B17": {"name": "anti-PD-1 antibody 2 HC Thr78Cys (antibody, human IgG4 S228P, kappa, V domains shown)", "VH": "B1 VH with C8G, T78C", "VL": "B1 VL", "modifications": "arm on Cys78 as named in each row"}, "B18": {"name": "anti-PD-1 antibody 2 HC Gly42Cys (antibody, human IgG4 S228P, kappa, V domains shown)", "VH": "B1 VH with C8G, G42C", "VL": "B1 VL", "modifications": "arm on Cys42 as named in each row"}, "B19": {"name": "anti-PD-1 antibody 2 HC Ser75Cys (antibody, human IgG4 S228P, kappa, V domains shown)", "VH": "B1 VH with C8G, S75C", "VL": "B1 VL", "modifications": "arm on Cys75 as named in each row"}, "B20": {"name": "anti-PD-1 antibody 2 HC Ala40Cys (antibody, human IgG4 S228P, kappa, V domains shown)", "VH": "B1 VH with C8G, A40C", "VL": "B1 VL", "modifications": "arm on Cys40 as named in each row"}, "B21": {"name": "anti-PD-1 antibody 1 heavy chain G50C (antibody, human IgG4 S228P, kappa, V domains shown)", "VH": "QVQLVQSGVEVKKPGASVKVSCKASGYTFTNYYMYWVRQAPGQGLEWMGCINPSNGGTNFNEKFKNRVTLTTDSSTTTAYMELKSLQFDDTAVYYCARRDYRFDMGFDYWGQGTTVTVSS", "VL": "EIVLTQSPATLSLSPGERATLSCRASKGVSTSGYSYLHWYQQKPGQAPRLLIYLASYLESGVPARFSGSGSGTDFTLTISSLEPEDFAVYYCQHSRDLPLTFGGGTKVEIKR"}, "B22": {"name": "anti-PD-1 antibody 1 heavy chain G57C (antibody, human IgG4 S228P, kappa, V domains shown)", "VH": "B21 VH with C50G, G57C", "VL": "B21 VL"}, "B23": {"name": "anti-PD-1 antibody 1 heavy chain S54C (antibody, human IgG4 S228P, kappa, V domains shown)", "VH": "B21 VH with C50G, S54C", "VL": "B21 VL"}, "B24": {"name": "anti-PD-1 antibody 1 heavy chain T30C (antibody, human IgG4 S228P, kappa, V domains shown)", "VH": "B21 VH with T30C, C50G", "VL": "B21 VL"}, "B25": {"name": "anti-PD-1 antibody 1 heavy chain T58C (antibody, human IgG4 S228P, kappa, V domains shown)", "VH": "B21 VH with C50G, T58C", "VL": "B21 VL"}, "B26": {"name": "anti-PD-1 antibody 1 heavy chain G56C (antibody, human IgG4 S228P, kappa, V domains shown)", "VH": "B21 VH with C50G, G56C", "VL": "B21 VL"}, "B27": {"name": "anti-PD-1 antibody 1 heavy chain G106C (antibody, human IgG4 S228P, kappa, V domains shown)", "VH": "B21 VH with C50G, G106C", "VL": "B21 VL"}, "B28": {"name": "anti-PD-1 antibody 2 heavy chain G33C (antibody, human IgG4 S228P, kappa, V domains shown)", "VH": "B1 VH with C8G, G33C", "VL": "B1 VL"}, "B29": {"name": "anti-PD-1 antibody 2 light chain T56C (antibody, human IgG4 S228P, kappa, V domains shown)", "VH": "B1 VH with C8G", "VL": "B1 VL with T56C"}, "B30": {"name": "anti-PD-1 antibody 2 light chain T97C (antibody, human IgG4 S228P, kappa, V domains shown)", "VH": "B1 VH with C8G", "VL": "B1 VL with T97C"}}, "note": "Where a chain is given by its changes, count along the chain named. In names and notes the source's numbering stands."}
{"target": "T1, PD-1 (UniProt Q15116 25-167, limits assumed)", "assay": "ELISA; Cys mutant, no arm", "units": {"binding activity, % of wild type": "%"}, "T1 sequence (Q15116 25-167 limits assumed)": "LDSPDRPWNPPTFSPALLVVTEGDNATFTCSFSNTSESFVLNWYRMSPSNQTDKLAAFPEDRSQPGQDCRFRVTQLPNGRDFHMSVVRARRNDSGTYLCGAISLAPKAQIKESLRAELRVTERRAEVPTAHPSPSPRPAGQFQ"}
{"binder": "B1", "binding activity, % of wild type": 93.2}
{"binder": "B2", "binding activity, % of wild type": 89.6}
{"binder": "B3", "binding activity, % of wild type": 84.3}
{"binder": "B4", "binding activity, % of wild type": 85}
{"binder": "B5", "binding activity, % of wild type": 98.8}
{"binder": "B6", "binding activity, % of wild type": 85.6}
{"binder": "B7", "binding activity, % of wild type": 99.8}
{"binder": "B8", "binding activity, % of wild type": 86.4}
{"binder": "B9", "binding activity, % of wild type": 89.7}
{"binder": "B10", "binding activity, % of wild type": 97.8}
{"binder": "B11", "binding activity, % of wild type": 99.6}
{"binder": "B12", "binding activity, % of wild type": 95.4}
{"binder": "B13", "binding activity, % of wild type": 81.4}
{"binder": "B14", "binding activity, % of wild type": 85}
{"binder": "B15", "binding activity, % of wild type": 99.3}
{"binder": "B16", "binding activity, % of wild type": 86}
{"binder": "B17", "binding activity, % of wild type": 92.2}
{"binder": "B18", "binding activity, % of wild type": 83.4}
{"binder": "B19", "binding activity, % of wild type": 96.3}
{"binder": "B20", "binding activity, % of wild type": 85.3}
{"target": "T1, PD-1", "assay": "ELISA; S9 on the Cys", "units": {"binding activity, % of wild type": "%"}}
{"binder": "B1", "binding activity, % of wild type": 78.3}
{"binder": "B2", "binding activity, % of wild type": 59.9}
{"binder": "B3", "binding activity, % of wild type": 46.8}
{"binder": "B4", "binding activity, % of wild type": 75.3}
{"binder": "B5", "binding activity, % of wild type": 69.4}
{"binder": "B6", "binding activity, % of wild type": 32.5}
{"binder": "B7", "binding activity, % of wild type": 48.7}
{"binder": "B8", "binding activity, % of wild type": 29.9}
{"binder": "B9", "binding activity, % of wild type": 31.8}
{"binder": "B10", "binding activity, % of wild type": 87.4}
{"binder": "B11", "binding activity, % of wild type": 45.6}
{"binder": "B12", "binding activity, % of wild type": 31.8}
{"binder": "B13", "binding activity, % of wild type": 56.9}
{"binder": "B14", "binding activity, % of wild type": 64.6}
{"binder": "B15", "binding activity, % of wild type": 78.3}
{"binder": "B16", "binding activity, % of wild type": 48.9}
{"binder": "B17", "binding activity, % of wild type": 86.3}
{"binder": "B18", "binding activity, % of wild type": 63.6}
{"binder": "B19", "binding activity, % of wild type": 38.7}
{"binder": "B20", "binding activity, % of wild type": 50.3}
{"target": "T2, PD-1 (UniProt Q15116 25-167, limits assumed)", "assay": "ELISA, OD mutant/OD WT; A=90-110%", "units": {"binding activity (OD after mutation/OD wild type)": "%"}, "T2 sequence (Q15116 25-167 limits assumed)": "as above"}
{"binder": "B21", "binding activity (OD after mutation/OD wild type)": "90 to 110"}
{"binder": "B22", "binding activity (OD after mutation/OD wild type)": "90 to 110"}
{"binder": "B23", "binding activity (OD after mutation/OD wild type)": "90 to 110"}
{"binder": "B24", "binding activity (OD after mutation/OD wild type)": "90 to 110"}
{"binder": "B25", "binding activity (OD after mutation/OD wild type)": "90 to 110"}
{"binder": "B26", "binding activity (OD after mutation/OD wild type)": "90 to 110"}
{"binder": "B27", "binding activity (OD after mutation/OD wild type)": "90 to 110"}
{"binder": "B28", "binding activity (OD after mutation/OD wild type)": "90 to 110"}
{"target": "T2, PD-1", "assay": "ELISA, OD mutant/OD WT; A=90-110%", "remark": "another data set of the same source", "units": {"binding activity (OD after mutation/OD wild type)": "%"}}
{"binder": "B29", "binding activity (OD after mutation/OD wild type)": "90 to 110"}
{"binder": "B30", "binding activity (OD after mutation/OD wild type)": "90 to 110"}
{"target": "T1, PD-1", "assay": "ELISA; S13 on the Cys", "units": {"binding activity, % of wild type": "%"}}
{"binder": "B1", "binding activity, % of wild type": 34.2}
{"binder": "B2", "binding activity, % of wild type": 32.1}
{"binder": "B3", "binding activity, % of wild type": 27}
{"binder": "B4", "binding activity, % of wild type": 42.4}
{"binder": "B5", "binding activity, % of wild type": 32.3}
{"binder": "B6", "binding activity, % of wild type": 21.5}
{"binder": "B7", "binding activity, % of wild type": 27}
{"binder": "B8", "binding activity, % of wild type": 15}
{"binder": "B9", "binding activity, % of wild type": 15.3}
{"binder": "B10", "binding activity, % of wild type": 24.6}
{"binder": "B11", "binding activity, % of wild type": 32.3}
{"binder": "B12", "binding activity, % of wild type": 11.7}
{"binder": "B13", "binding activity, % of wild type": 22.9}
{"binder": "B14", "binding activity, % of wild type": 15}
{"binder": "B15", "binding activity, % of wild type": 30.8}
{"binder": "B16", "binding activity, % of wild type": 21.7}
{"binder": "B17", "binding activity, % of wild type": 42.4}
{"binder": "B18", "binding activity, % of wild type": 29.8}
{"binder": "B19", "binding activity, % of wild type": 14.6}
{"binder": "B20", "binding activity, % of wild type": 37.2}
